Assay results as given in patent publication US8153410B2, “Alternate morpheein forms of allosteric proteins as a target for the development of bioactive molecules” (Fox Chase Cancer Center, priority 2003, dated 2012).
Entries after “also recorded” stand apart in the source; their conditions may differ. Where two headings read alike, the source gives them in different places.

T1: pea PBGS (Pisum sativum, UniProt P30124)
T1 sequence (P30124 69-398 limits assumed): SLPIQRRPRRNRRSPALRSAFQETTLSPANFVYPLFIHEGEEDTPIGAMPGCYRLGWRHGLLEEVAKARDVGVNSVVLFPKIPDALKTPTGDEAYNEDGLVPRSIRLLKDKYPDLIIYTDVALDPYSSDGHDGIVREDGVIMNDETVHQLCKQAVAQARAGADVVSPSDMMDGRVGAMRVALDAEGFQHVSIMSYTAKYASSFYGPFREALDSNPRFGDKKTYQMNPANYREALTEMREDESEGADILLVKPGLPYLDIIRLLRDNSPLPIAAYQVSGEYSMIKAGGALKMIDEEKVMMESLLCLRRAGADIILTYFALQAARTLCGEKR

B1: F12L: naturally occurring rare allele variant of human PBGS, hexameric, heterologously expressed in E. coli (protein)
chain: MQPQSVLHSGYLHPLLRAWQTATTTLNASNLIYPIFVTDVPDDIQPITSLPGVARYGVNRLEEMLRPLVEEGLRCVLIFGVPSRVPKDERGSAADSEESPAIEAIHLLRKTFPNLLVACDVCLCPYTSHGHCGLLSENGAFRAEESRQRLAEVALAYAKAGAQVVAPSDMMDGRVEAIKEALMAHGLGNRVSVMSYSAKFASCFYGPFRDAAKSSPAFGDRRCYQLPPGARGLALRAVDRDVREGADMLMVKPGMPYLDIVREVKDKHPDLPLAVYHVSGEFAMLWHGAQAGAFDLKAAVLEAMTAFRRAGADIIITYYTPQLLQWLKEE

How the values were obtained:
Type in all cases: biochemical
pea PBGS [1] = target: T2, pea PBGS (Pisum sativum, UniProt P30124, C394A); test: native PAGE gel shift of pea PBGS octamer/hexamer equilibrium; details: pea PBGS C326A hexamer, rosmarinic acid 12.5 μM-12.5 mM preincubated 30 min 37 C, then 1 mM ALA and 1 mM MgCl2
T2 construct: made in house
Procedure: (§1) FIG. 32(a) The inhibitor morphlock-1 is illustrated as posed by Glide. The subunits A, B, and E are illustrated as ribbon diagram. Morphlock-1 is shown with carbon atoms and illustrated as ball and stick. FIG. 32(b) The chemical structure of morphlock-1. […] Pea PBGS was incubated with various concentrations of morphlock-1 (in a DMSO solution). Each concentration of morphlock-1 with a fixed amount of DMSO was incubated with protein for 30 minutes at 37° C. prior to resolution on 12.5% polyacrylamide native PhastGels. […] (d) The protein concentration dependence of pea PBGS specific activity is illustrated. PBGS (at varied concentrations) was incubated in the presence of DMSO (●) or 50 μM morphlock-1 in DMSO (∘) for 30 minutes at 37° C. prior to assay. The final concentration of morphlock-1 in the inhibited assay was 5 μM, and the concentration of PBGS in the inhibited and control assays ranged from 0.05-50 μg/mL (0.014-1.4 μM).
FIG. 34(b) Hexameric pea PBGS (1 mg/mL, prepared by dialysis against low ionic strength) was incubated with DMSO (left) or 500 μM morphlock-1 (right) for 30 minutes at 37° C. ALA was added at the indicated concentrations, and the incubation was continued for 30 minutes prior to resolution on 12.5% polyacrylamide native PhastGels. […] Morphlock-1 concentrations are listed at the top of each lane. Protein samples for left-most gel were at 50 μg/ml (1.4 μM subunit) and 1 mM ALA; protein detection is by silver staining. Samples for the middle gel were also at 50 μg/ml (1.4 μM subunit) and 1 mM ALA; the gel was activity stained. Samples for the right-most gel were at 5 μg/ml (0.14 μM subunit) and 10 mM magnesium; protein detection is by Krypton Infrared staining.
FIG. 41 illustrates native PAGE screening of compounds. Octameric PBGS (1 mg/mL) was incubated with DMSO or 2 mM of each compound for 30 minutes at 37° C. prior to resolution on 12.5% polyacrylamide native PhastGels. […] Each compound is identified by its box address. The compound B6 is morphlock-1.
The interconversion of pea PBGS hexamer and octamer is a dynamic equilibrium that responds to protein concentration, substrate concentration, magnesium concentration, inhibitor concentration, and ionic strength.

pea PBGS [2] = target: T1, pea PBGS; test: pea PBGS activity assay (inhibition, protein concentration dependent specific activity); parameters: made in house
Procedure: as §1, with “PBGS (at varied concentrations) was incubated in the presence of DMSO (●) or 50 μM morphlock-1 in DMSO (∘) for 30 minutes at 37° C. prior to assay.” left out
The proteins were incubated in the presence of 10× inhibitor for 30 minutes at 37° C. prior to assay. The concentrations on the X-axis represent the final concentration of morphlock-1 in the assay. FIG. 33(b). […] IC50 values were determined as per part (a) using the noted concentrations of pea PBGS. (c) Native PAGE evaluation of the effect of morphlock-1 on the quaternary structure equilibria of PBGS (˜1 mg/ml) from D. melanogaster, P. aeruginosa, V. cholerae, and H. sapiens. Note that the charge/mass ratio is not the same for PBGS from different species.
The dose response curve for morphlock-1 inhibition of pea PBGS (FIG. 37a) was initially carried out at 0.03 μM pea PBGS, where the hexamer is a significant component of the equilibrium mixture; the morphlock-1 concentration was varied from 0.1 μM to 0.1 mM.
The dose response curve for morphlock-1 inhibition of pea PBGS (FIG. 33(a)) was initially carried out at 0.03 μM pea PBGS, where the hexamer is a significant component of the equilibrium, in order to optimize the observed inhibition; the morphlock-1 concentration was varied from 0.1 μM to 0.1 mM.

human PBGS [3] = test: kinetic characterization (Km, Vmax, specific activity) of human PBGS variants with substrate ALA; details: for Km1 / Vmax1: Table 1; for Vmax2 / Km: Table 3; for Km: read-out: Km2 (Km for the hexamer)
Procedure: All kinetic determinations were carried out in 0.1 M bis-tris propane, 10 mM 2-mercaptoethanol, 10 μM Zn. For the pH rate profiles, the reported pH reflects the assay pH after the addition of 10 mM ALA-HCl. For Km and Vmax determinations, concentrations of ALA were 10 μM, 30 μM, 100 μM, 300 μM, 1 mM, 3 mM, and 10 mM and were each done in duplicate. […] All assays were at 37° C. for a fixed time using Ehrlich's reagent to determine porphobilinogen formed.
The kinetic parameters Km and Vmax of the S300 purified pools were determined at pH 7 and at pH 9 (Table 3 contains data for hetero-hexamers (Pool I) initially at 70% Leu and 30% Phe and for hetero-octamers (Pool II) initially at 30% Leu and 70% Phe). […] With the exception of the trace amount of octamer present for Pool I that is detected at pH 9, all the kinetic values are well determined (see Table 3). […] The factors that govern equilibration of human PBGS heteromers under assay conditions remain to be elucidated.
Km1 and Km2 (both mM) are interpreted as the Km for the octamer and hexamer, respectively.
Using freshly prepared hetero-oligomers of WT+F12L, the Pool I and Pool II proteins were separated chromatographically and then dialyzed for 24 hours at pH 7 in the presence of 10 mM ALA. Following dialysis, the re-equilibrated hetero-oligomers were again separated into their hexameric and octameric components by chromatography on a Mono-Q column. The separated proteins were characterized for their specific activity and for their Phe12 and Leu12 content. The specific activity of hexamer and octamer are dramatically different with hexamer showing optimal activity at pH 9 and the activity of octamer is maximal at pH 7 (Table 4). […] Following chromatographic separation, the proteins were called Pool I hexamer, Pool I octamer, Pool II hexamer, and Pool II octamer and are described below. The peak to elute first on the Mono-Q column runs comparably to the F12L mutant, which is the hexamer. The hexameric structure is substantiated by native gel electrophoresis and by specific activity at pH 7 and pH 9 (FIG. 26A and Table 4). The second peak to elute runs comparably to the WT human PBGS, which is the octamer. The octameric structure is substantiated by native gel electrophoresis and specific activity at pH 7 and pH 9 (FIG. 26A and Table 4). Consistent with the documented characteristics of human PBGS hexamers and octamers, Pool I hexamer and Pool II hexamer have very low activity at pH 7 and considerable activity at pH 9. Pool I octamer and Pool II octamer both show substantially higher activity at pH 7 than at pH 9.

human PBGS [4] = test: temperature dependence (Arrhenius plots) of hetero-hexamer to hetero-octamer conversion and of substrate turnover; details: pH 7.0, 10 mM ALA-HCl
Description: To determine the free energy of activation for the conversion of hetero-hexamers to hetero-octamers, we took advantage of the dramatic differences in the activity of octameric (high activity) and hexameric (low activity) human PBGS at pH 7.0 (3, 5). Because of this difference, the transition from purified hetero-hexamers to a mixture of hetero-hexamers and hetero-octamers under turnover conditions is accompanied by a progressive increase in the specific activity; this process was monitored at several temperatures. Starting with purified hetero-hexamers, (FIG. 34a) the specific activity increased, which is fit to a first-order exponential as exemplified in FIG. 35b (5). […] The time-courses for conversion of hetero-hexamer to hetero-octamer were monitored by periodically removing aliquots from the incubations and immediately quantifying porphobilinogen using Ehrlich's reagent and calculating specific activities based on the total incubation time. […] An activation energy for hetero-hexamer to hetero-octamer conversion (Ea=63±5 kJ/mol) was determined from the slope of the plot. […] However, we previously monitored this process at 5 μg/ml and 0.9 mg/ml, two widely different enzyme concentrations, by specific activity increase and dynamic light scattering respectively. […]

T2 sequence (P30124 69-398 C394A): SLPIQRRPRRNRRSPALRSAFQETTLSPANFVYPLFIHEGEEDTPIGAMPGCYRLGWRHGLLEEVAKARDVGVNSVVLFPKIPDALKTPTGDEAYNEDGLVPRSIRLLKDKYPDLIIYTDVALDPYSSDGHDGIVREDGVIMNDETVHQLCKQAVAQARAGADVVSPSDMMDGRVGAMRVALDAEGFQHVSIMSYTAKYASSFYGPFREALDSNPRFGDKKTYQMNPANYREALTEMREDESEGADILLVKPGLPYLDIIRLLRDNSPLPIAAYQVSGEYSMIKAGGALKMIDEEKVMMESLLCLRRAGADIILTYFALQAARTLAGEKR

| Molecule | native gel: conversion of hexamer to octamer by ALA and magnesium (pea PBGS [1]) | IC50 (pea PBGS [2]) [µM] | mode of inhibition (dependence on preincubation time) (pea PBGS [2]) | PBGS concentration giving half maximal specific activity after rosmarinic acid treatment (pea PBGS [2]; 30 minute treatment with 30 μM rosmarinic acid, untreated 3.5 μg/ml) [µg/mL] | Specific activities before and after substrate induced disproportionation (human PBGS [3]; pH 7) [µmol/h/mg] | Km1 (human PBGS [3]; pH 7) [mM] | Vmax1 (human PBGS [3]; pH 7) | Vmax2 (human PBGS [3]; pH 7) [µmol/h/mg] | Km (human PBGS [3]; pH 7) [mM] | Specific activities before and after substrate induced disproportionation (human PBGS [3]; pH 9) [µmol/h/mg] | Km1 (human PBGS [3]; pH 9) [mM] | Vmax1 (human PBGS [3]; pH 9) | Vmax2 (human PBGS [3]; pH 9) [µmol/h/mg] | Km (human PBGS [3]; pH 9) [mM] | activation energy for substrate turnover (human PBGS [4]) [kcal/mol] |
| --- | --- | --- | --- | --- | --- | --- | --- | --- | --- | --- | --- | --- | --- | --- | --- |
| O=C(/C=C/c1ccc(O)c(O)c1)O[C@H](Cc1ccc(O)c(O)c1)C(=O)O [rosmarinic acid, benzenepropanoic acid, α-[[(2E)-3-(3,4-dihydroxyphenyl)-1-oxo-2-propenyl]oxy]-3,4-dihydroxy-, (αR)-(9CI), reference compound] | prevent conversion of the hexamer to the octamer; also recorded: stabilizes the hexameric pea PBGS against conversion to the octamer | ~63 | slow-binding inhibitor | 13.5 |  |  |  |  |  |  |  |  |  |  |  |
| B1 |  |  |  |  | 0.3 | 17.7 ± 1.1 | 1.14 ± 0.05 | 1.14 ± 0.05 | 17.7 ± 1.1 | 14.5 | 4.6 ± 0.1 | 18.2 ± 0.02 | 18.2 ± 0.2 | 4.6 ± 0.1 | 10.8 ± 0.72 |
